Results taken from patent US20080182978A1, “ANTI-NGF ANTIBODIES AND METHODS USING SAME” (RINAT NEUROSCIENCE CORP, priority 2002, published 2008).

B1: E3: humanized, affinity matured anti-NGF antagonist antibody; variable regions SEQ ID NO:1 and 2; human IgG2a (A330P331 to S330S331), kappa (antibody, V domains shown)
VH: QVQLQESGPGLVKPSETLSLTCTVSGFSLIGYDLNWIRQPPGKGLEWIGIIWGDGTTDYNSAVKSRVTISKDTSKNQFSLKLSSVTAADTAVYYCARGGYWYATSYYFDYWGQGTLVTVS
VL: DIQMTQSPSSLSASVGDRVTITCRASQSISNNLNWYQQKPGKAPKLLIYYTSRFHSGVPSRFSGSGSGTDFTFTISSLQPEDIATYYCQQEHTLPYTFGQGTKLEIKRT
modifications: human IgG2a constant (A330S/P331S) and kappa constant missing

Tests used:
[1] = tested on: complete Freund's adjuvant (CFA)-induced chronic arthritis; test: CFA arthritis rats, paw volume (plethysmometer); assay type: in vivo, rat; details: for change of paw volume compared to vehicle-treated arthritic group: E3 1 mg/kg or 911 10 mg/kg i.v. D14+D19, indomethacin 3 mg/kg/day p.o.; for paw volume (mean of right and left hindpaw): arthritic rats
Method: (§1) Five groups of 10 animals (5-weeks old male Lewis rats-LEWIS Lew/Ico, from Charles River Laboratories—Belgium) each were included in this study: Group 1: non arthritic rats/saline (vehicle), i.v. bolus, n=10; Group 2: arthritic rats/saline (vehicle), i.v. bolus, n=10; Group 3: arthritic rats/Indomethacin 3 mg/kg, p.o daily over 10 days, n=10; […]; Group 5: arthritic rats/911, 10 mg/kg, i.v. bolus, n=10. The doses were expressed in terms of free active substance (mg/kg). E3 and 911 were extemporaneously prepared in saline from the stock solution to the desired concentration. […]. All diluted solutions (before i.v. injection) were sterilized using a sterile filter unit of 0.20.μm. pH and osmolarity values of diluted solutions were measured before each i.v. injection. Before the first i.v., osmolarity (mosm/L) for saline, E3, and 911 were 278, 269, and 308 respectively; pH for saline, E3, and 911 were 5.93, 6.76, 6.71 respectively. Before the second i.v., osmolarity (mosm/L) for saline, E3, and 911 were 280, 270, and 309 respectively; pH for saline, E3, and 911 were 5.86, 6.72, and 6.59 respectively.
(§2) E3 or 911 or saline were administered by i.v. bolus injection on Day 14 and Day 19 after arthritis induction in a coded and random order with a volume of 5 mL/kg. The non arthritic group was given by i.v. bolus injection of saline on Day 14 and Day 19 with a volume of 5 mL/kg. Indomethacin was extemporaneously prepared in 1% methylcellulose. Indomethacin was administered by oral route (p.o.) once daily over 10 days from Day 14 to Day 23 after arthritis induction in a coded and random order with a volume of 10 mL/kg.
The right and left hindpaw volume of each rat (arthritic and non arthritic rats) was measured using a plethysmometer. The measurements were performed at the following times (after induction of arthritis): Day 14 (before i.v. bolus or p.o. administration); and Day 24 (5 days after the last i.v. bolus injection or 24 h after the last p.o. administration). All measurements were performed between 9:00 and 12:00 am. All the data were collected and stored by the WinDas software.
(§3) All results were reported as Mean ±S.E.M. of 10 rats in each group at each time point. Paw volume was expressed in ml calculated from the mean value of the right and left paw volume. Arthritis index was calculated from the sum of the score obtained for each of the 4 paws. The nociceptive response was evaluated by the intensity of the level of vocalization recorded for each animal (mean of 4 values: 2 times/paw) in mV. The percentage inhibition of the nociceptive response was calculated from the mean value of the vehicle-treated arthritic group [(mean value of vehicle-treated arthritic group−mean value of treated arthritic group/mean value of vehicle-treated arthritic group)*100]. Body weight was expressed in grams. Hindpaws (left and right) weight was expressed in grams. Cytokine levels (IL-6, IL-1β, TNF-α and TGF-β1) of each hind paw was expressed in pg/ml. Circulating levels of TGF-β1 was expressed in pg/ml. Radiological index for each parameter (demineralization, erosions, periostal reaction, soft tissue damage, space joint, osteogenesis deformity) and total radiological index (total score) were calculated from the sum of the scores obtained for each parameter. The inter-group significances of the deviations between the values of vehicle-treated group (arthritic rats) and vehicle-treated group (non arthritic rats) were assessed by the Student t test or Mann-Whitney Rank Sum Test when equal variance or normality test failed. The inter-group significances of the deviations between the values of vehicle-treated group (arthritic rats) and E3- and 911- and Indomethacin-treated groups were assessed by the 1-way analysis of variance ANOVA followed by the non-paired Dunnett t test. A probability of P<0.05 was considered as significant. All statistical analysis was performed by the Sigmastat™ software.

[2] = tested on: complete Freund's adjuvant (CFA)-induced chronic arthritis; test: CFA arthritis rats, arthritis index (inflammation score); assay type: in vivo, rat; details: for change of arthritis index compared to vehicle-treated arthritic group: E3 1 mg/kg or 911 10 mg/kg i.v. D14+D19, indomethacin 3 mg/kg/day p.o.; for arthritis index (score): arthritic rats
Method: as §1, §2
Arthritis index was evaluated using an inflammation score for each hind and forepaw (arthritic rats): Score 0: normal aspect; Score 1: erythema; Score 2: erythema with slight edema; Score 3: strong inflammation without ankylosis; Score 4: ankylosis. This evaluation was performed at the following times (after induction of arthritis): Day 14 (before i.v. bolus or p.o. administration); and Day 24 (5 days after the last i.v. bolus injection or 24 h after the last p.o. administration). All measurements were performed between 2:00 and 3:00 pm (D 14), 8:00 and 9:00 am (D 24). All the data were collected and stored by the WinDas software.
as §3, with “A probability of P<0.05 was considered as significant. All statistical analysis was performed by the Sigmastat™ software.” left out

[3] = E3 1 mg/kg or 911 10 mg/kg i.v. D14+D19, indomethacin 3 mg/kg/day p.o. 10 days, D24

Molecule	change of paw volume compared to vehicle-treated arthritic group ([1]; D24)	paw volume (mean of right and left hindpaw) ([1]; D14 (before dosing))	paw volume (mean of right and left hindpaw) [1, 3]	change of arthritis index compared to vehicle-treated arthritic group ([2]; D24)	arthritis index (score) ([2]; D14 (before dosing))	anti-inflammatory effects in arthritis model (conclusion) ([2]; E3 1 mg/kg i.v., 911 10 mg/kg i.v., D14+D19)	arthritis index (score) [2, 3]
COc1ccc2c(c1)c(CC(=O)O)c(C)n2C(=O)c1ccc(Cl)cc1 [Indomethacin, reference compound]	about −0.75 mL	2.08 ± 0.06 mL	1.59 ± 0.03 mL	about −8.0	8.7±0.6		
B1	about 0.37 mL	2.06 ± 0.03 mL	2.71 ± 0.09 mL	did not affect the arthritis index	10.2±0.4	did not show significant anti-inflammatory effects	11.4±0.4
